Patent publication US20200040059A1

Tests used:
CD28 (human) [1] = molecular target: CD28 (human) (UniProt P10747); test: flow cytometry, transfected cells
PD-L1 (human) [2] = molecular target: PD-L1 (human) (UniProt Q9NZQ7); test: flow cytometry, transfected cells
CD28 (human) [3] = molecular target: CD28 (human) (UniProt P10747); test: flow cytometry; MFI vs m21
PD-L1 (human) [4] = molecular target: PD-L1 (human) (UniProt Q9NZQ7); test: flow cytometry; MFI vs m21
CTLA4 (human) [5] = molecular target: CTLA4 (human) (UniProt P16410); test: flow cytometry, transfected cells
Sequence of CTLA4 (human) (P16410 36-223 limits assumed): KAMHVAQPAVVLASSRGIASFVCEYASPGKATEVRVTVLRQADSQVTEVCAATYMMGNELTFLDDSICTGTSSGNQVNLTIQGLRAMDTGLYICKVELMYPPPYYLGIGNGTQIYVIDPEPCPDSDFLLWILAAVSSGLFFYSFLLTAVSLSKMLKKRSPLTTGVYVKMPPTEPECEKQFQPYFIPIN

CTLA4 (human) [6] = molecular target: CTLA4 (human) (UniProt P16410); test: flow cytometry; MFI vs m21
human B7-H6 (human) [7] = molecular target: human B7-H6 (human) (UniProt Q68D85); test: flow cytometry, transfected cells
Sequence of human B7-H6 (human) (Q68D85 25-454): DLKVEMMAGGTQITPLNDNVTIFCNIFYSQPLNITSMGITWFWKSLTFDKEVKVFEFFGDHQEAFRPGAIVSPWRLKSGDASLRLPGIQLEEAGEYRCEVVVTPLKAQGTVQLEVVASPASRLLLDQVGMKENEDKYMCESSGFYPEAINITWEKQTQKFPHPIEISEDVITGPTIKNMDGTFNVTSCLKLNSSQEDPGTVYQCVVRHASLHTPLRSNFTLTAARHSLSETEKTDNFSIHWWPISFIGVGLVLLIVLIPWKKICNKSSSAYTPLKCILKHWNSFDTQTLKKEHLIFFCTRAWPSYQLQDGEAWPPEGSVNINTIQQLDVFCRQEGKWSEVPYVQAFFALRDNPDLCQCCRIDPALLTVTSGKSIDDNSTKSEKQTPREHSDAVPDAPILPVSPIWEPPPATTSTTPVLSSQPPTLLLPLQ

human B7-H6 (human) [8] = molecular target: human B7-H6 (human) (UniProt Q68D85); test: flow cytometry; MFI vs m9
[9] = molecular target: T1, human CD226, full length, expressed on transfected Expi293 cells (human) (UniProt Q15762); test: flow cytometry, Expi293 cells transfected with full-length human CD226
T1 sequence: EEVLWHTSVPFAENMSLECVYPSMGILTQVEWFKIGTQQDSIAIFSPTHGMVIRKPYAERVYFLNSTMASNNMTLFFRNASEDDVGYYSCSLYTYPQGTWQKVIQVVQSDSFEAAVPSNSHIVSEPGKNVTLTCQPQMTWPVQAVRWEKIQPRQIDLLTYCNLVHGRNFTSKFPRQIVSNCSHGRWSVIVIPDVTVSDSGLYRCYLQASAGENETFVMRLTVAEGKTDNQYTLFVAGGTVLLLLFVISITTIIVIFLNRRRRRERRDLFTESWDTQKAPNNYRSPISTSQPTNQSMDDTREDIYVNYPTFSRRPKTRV

human ICOS (human) = test: flow cytometry, transfected cells
Sequence of human ICOS (human) (Q9Y6W8 whole entry): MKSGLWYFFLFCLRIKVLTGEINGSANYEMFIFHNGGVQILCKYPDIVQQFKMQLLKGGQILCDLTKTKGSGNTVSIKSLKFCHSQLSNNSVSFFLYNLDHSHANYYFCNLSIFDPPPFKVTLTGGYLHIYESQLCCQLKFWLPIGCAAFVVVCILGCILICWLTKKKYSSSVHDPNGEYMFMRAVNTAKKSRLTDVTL

CTLA4 (human) [10] = molecular target: CTLA4 (human) (UniProt P16410); test: flow cytometry, transfected cells; column head doubtful
PD-L1 (human) [11] = molecular target: PD-L1 (human) (UniProt Q9NZQ7); test: as above
[12] = molecular target: human ICOS, full-length, expressed on transfected Expi293 cells (human) (UniProt Q9Y6W8); test: flow cytometry on ICOS-expressing Expi293 cells
Sequence of human ICOS, full-length, expressed on transfected Expi293 cells (human) (Q9Y6W8 21-199 limits assumed): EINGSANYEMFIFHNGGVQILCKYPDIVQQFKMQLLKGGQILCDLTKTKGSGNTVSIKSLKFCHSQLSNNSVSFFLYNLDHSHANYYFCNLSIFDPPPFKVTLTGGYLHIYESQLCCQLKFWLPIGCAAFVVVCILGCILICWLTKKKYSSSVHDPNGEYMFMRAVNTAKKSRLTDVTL

[13] = molecular target: human CD28, full-length, expressed on transfected Expi293 cells (human) (UniProt P10747); test: flow cytometry on CD28-expressing Expi293 cells
[14] = molecular target: human B7-H6, full-length, expressed on transfected Expi293 cells (human) (UniProt Q68D85); test: flow cytometry on B7-H6-expressing Expi293 cells
Sequence of human B7-H6, full-length, expressed on transfected Expi293 cells (human) (Q68D85 25-454): as the sequence (Q68D85 25-454) above

CD28 (human) [15] = molecular target: CD28 (human) (UniProt P10747); test: flow cytometry; MFI vs m14
human B7-H6 (human) [16] = molecular target: human B7-H6 (human) (UniProt Q68D85); test: flow cytometry; MFI vs m14
human B7-H6 (human) [17] = molecular target: human B7-H6 (human) (UniProt Q68D85); test: flow cytometry; MFI vs m10
CTLA4 (human) [18] = molecular target: CTLA4 (human) (UniProt P16410); test: flow cytometry on HEK293 cells transfected with CTLA4
CTLA4 (human) [19] = molecular target: CTLA4 (human) (UniProt P16410); test: flow cytometry, MFI on CTLA4 cells over MFI on CD28 cells
CD28 (human) [20] = molecular target: CD28 (human) (UniProt P10747); test: flow cytometry on HEK293 cells transfected with CD28
PD-L1 (human) [21] = molecular target: PD-L1 (human) (UniProt Q9NZQ7); test: flow cytometry on HEK293 cells transfected with PD-L1
[22] = molecular target: CD80 (Homo sapiens (Human)) (UniProt P33681); test: flow cytometry, cells expressing CD80; vs WT PD-L1 (IgV + IgC) Fc
Sequence of CD80 (Homo sapiens (Human)) (P33681 35-288 limits assumed): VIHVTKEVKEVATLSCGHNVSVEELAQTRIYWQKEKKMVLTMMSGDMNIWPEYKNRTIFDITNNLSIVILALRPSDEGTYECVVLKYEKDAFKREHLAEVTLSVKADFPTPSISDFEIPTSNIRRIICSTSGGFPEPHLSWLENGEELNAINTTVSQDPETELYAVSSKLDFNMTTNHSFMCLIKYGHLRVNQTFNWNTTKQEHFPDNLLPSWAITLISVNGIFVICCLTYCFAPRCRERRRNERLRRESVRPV

[23] = molecular target: CD80 (Homo sapiens (Human)) (UniProt P33681); test: flow cytometry, cells expressing CD80

Sequence of Domain 1: ICOSL WT / Domain 2: CD80 WT / Fc (Fc fusion) (chain): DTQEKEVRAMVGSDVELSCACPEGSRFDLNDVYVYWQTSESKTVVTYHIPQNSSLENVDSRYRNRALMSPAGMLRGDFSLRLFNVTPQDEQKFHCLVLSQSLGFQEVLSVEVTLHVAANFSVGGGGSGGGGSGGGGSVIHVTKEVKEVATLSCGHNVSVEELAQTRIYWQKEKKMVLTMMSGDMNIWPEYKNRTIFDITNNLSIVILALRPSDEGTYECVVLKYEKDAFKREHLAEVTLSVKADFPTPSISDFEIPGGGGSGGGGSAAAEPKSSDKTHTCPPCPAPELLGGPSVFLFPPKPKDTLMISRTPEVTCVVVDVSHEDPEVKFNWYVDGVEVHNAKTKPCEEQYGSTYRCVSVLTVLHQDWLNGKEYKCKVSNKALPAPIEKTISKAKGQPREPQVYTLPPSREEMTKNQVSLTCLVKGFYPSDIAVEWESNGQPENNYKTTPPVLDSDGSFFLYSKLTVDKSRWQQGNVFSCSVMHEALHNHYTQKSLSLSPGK
Sequence of PD-L1 (human) (Q9NZQ7 19-290 limits assumed): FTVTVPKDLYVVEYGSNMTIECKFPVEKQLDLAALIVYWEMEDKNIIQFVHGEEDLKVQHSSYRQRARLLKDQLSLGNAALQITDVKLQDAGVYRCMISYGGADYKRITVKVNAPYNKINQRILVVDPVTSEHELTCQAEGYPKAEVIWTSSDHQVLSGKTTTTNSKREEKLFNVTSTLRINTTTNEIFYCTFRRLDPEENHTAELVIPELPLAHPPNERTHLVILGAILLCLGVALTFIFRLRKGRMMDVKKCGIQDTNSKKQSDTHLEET

Domain 1: CD80 I67T/L70Q/A91G/T120S / Domain 2: CD80 E88D/K89R/D90K/A91G/F92Y/K93R / Fc (Fc fusion)
MFI (CD28 (human) [1]): 938
MFI (PD-L1 (human) [2]): 995
WT parental MFI ratio (CD28 (human) [3]): 0.57
WT parental MFI ratio (PD-L1 (human) [4]): 0.16

Domain 1: CD80 R29V/Y31F/K36G/M38L/M43Q/E81R/V83I/L85I/K89R/D90L/A91E/F92N/K93Q/R94G / Domain 2: CD80 E88D/K89R/D90K/A91G/F92Y/K93R / Fc (Fc fusion)
MFI (CTLA4 (human) [5]): 1990
MFI (PD-L1 (human) [2]): 1930
WT parental MFI ratio (CTLA4 (human) [6]): 0.42
WT parental MFI ratio (PD-L1 (human) [4]): 0.31

Domain 1: NKp30 WT / Domain 2: CD80 WT / Fc (Fc fusion)
MFI (CD28 (human) [1]): 7020
MFI (human B7-H6 (human) [7]): 88800
WT parental MFI ratio (human B7-H6 (human) [8]): 1

CD112 variant A95V, A112I IgV-Fc fusion (from UniProt Q92692 32-156)
MFI [9]: 51900 MFI

Domain 1: ICOSL WT / Domain 2: CD80 WT / Fc (Fc fusion)
MFI (CD28 (human) [1]): 3000
MFI (human ICOS (human)): 14400
MFI (PD-L1 (human) [2]): 2970
MFI (CTLA4 (human) [10]): 14400
MFI (PD-L1 (human) [11]): 3000

stacked Fc fusion, Domain 1: ICOSL WT / Domain 2: Nkp30 WT
MFI [12]: 70300 MFI
MFI [13]: 7920 MFI
MFI [14]: 118000 MFI
WT parental MFI ratio (ratio to WT stack) [14]: 1

Domain 1: CD80 (R29H/Y31H/T41G/Y87N/E88G/K89E/D90N/A91G/P109S) / Domain 2: NKp30 (L30V/A60V/S64P/S86G) / Fc (Fc fusion)
MFI (CD28 (human) [1]): 4340
MFI (human B7-H6 (human) [7]): 55700
WT parental MFI ratio (CD28 (human) [15]): 0.32
WT parental MFI ratio (human B7-H6 (human) [16]): 0.5

Domain 1: NKp30 WT / Domain 2: CD86 WT / Fc (Fc fusion)
MFI (CD28 (human) [1]): 1690
MFI (human B7-H6 (human) [7]): 14100
WT parental MFI ratio (human B7-H6 (human) [17]): 1

CD80 IgV-Fc I30T/L70R (Fc fusion)
Fold change to WT (CTLA4 (human) [18]): 0 fold
MFI at 66.6 nM (CTLA4 (human) [18]): 2230 MFI
Ratio of CTLA4:CD28 (CTLA4 (human) [19]): 0.9
Fold change to WT (CD28 (human) [20]): 0.1 fold
MFI at 66.6 nM (CD28 (human) [20]): 2600 MFI
MFI at 22.2 nM (PD-L1 (human) [21]): 5160 MFI

variant PD-L1 ECD-Fc K57R, S99G, F189L (from UniProt Q9NZQ7 19-239) (Fc fusion)
Fold Change Compared to WT PD-L1 [22]: 96.3 fold
MFI at 20 nM [23]: 12900
